Laboratory results: article PMC3215855 (Developmental cell, 2011)
One block for each binder: values may come before it.

Target: T1, LRP6(3-4) (human, UniProt O75581 630-1246, N-linked carbohydrate at five predicted sites)
T1 sequence: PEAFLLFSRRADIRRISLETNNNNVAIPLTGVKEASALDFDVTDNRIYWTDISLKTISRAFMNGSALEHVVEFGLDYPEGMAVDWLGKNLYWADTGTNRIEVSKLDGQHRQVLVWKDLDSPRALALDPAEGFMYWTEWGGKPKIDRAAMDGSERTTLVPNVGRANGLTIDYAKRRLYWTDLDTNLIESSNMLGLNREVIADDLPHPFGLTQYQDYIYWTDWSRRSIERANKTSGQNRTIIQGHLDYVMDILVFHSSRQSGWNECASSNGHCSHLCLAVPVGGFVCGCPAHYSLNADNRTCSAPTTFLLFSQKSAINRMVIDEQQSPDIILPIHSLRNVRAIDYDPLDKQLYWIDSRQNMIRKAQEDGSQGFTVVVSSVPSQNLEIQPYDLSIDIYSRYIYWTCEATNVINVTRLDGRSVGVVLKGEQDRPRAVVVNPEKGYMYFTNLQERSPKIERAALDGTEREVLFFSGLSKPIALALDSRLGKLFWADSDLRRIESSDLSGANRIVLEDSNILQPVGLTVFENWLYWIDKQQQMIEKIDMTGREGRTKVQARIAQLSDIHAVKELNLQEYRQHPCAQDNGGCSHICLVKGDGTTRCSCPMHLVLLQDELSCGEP
Assay: ITC

stoichiometry N: 1
B1: Dkk1_C (domain or fragment, human, UniProt O94907 178-266, looked up)
chain: MYHTKGQEGSVCLRSSDCASGLCCARHFWSKICKPVLKEGQVCTKHRRKGSHGLEIFQRCYCGEGLSCRIQKDHHQASNSSRLHTCQRH

Kd: 67 nM
B2: full-length Dkk1 (ligand, human, UniProt O94907 32-266, looked up)
chain: TLNSVLNSNAIKNLPPPLGGAAGHPGSAVSAAPGILYPGGNKYQTIDNYQPYPCAEDEECGTDEYCASPTRGGDAGVQICLACRKRRKRCMRHAMCCPGNYCKNGICVSSDQNHFRGEIEETITESFGNDHSTLDGYSRRTTLSSKMYHTKGQEGSVCLRSSDCASGLCCARHFWSKICKPVLKEGQVCTKHRRKGSHGLEIFQRCYCGEGLSCRIQKDHHQASNSSRLHTCQRH
modifications: one N-linked carbohydrate site
